Measured values as given in publication PMC3413111.
Positions count from the first letter of the chain named. Where two headings read alike, the source gives them in different places.

Tests used:
Bse634I R226A [1] = molecular target: T1, Bse634I R226A (UniProt Q8RT53 1-293, R226A); assay: crystal structure
T1 sequence: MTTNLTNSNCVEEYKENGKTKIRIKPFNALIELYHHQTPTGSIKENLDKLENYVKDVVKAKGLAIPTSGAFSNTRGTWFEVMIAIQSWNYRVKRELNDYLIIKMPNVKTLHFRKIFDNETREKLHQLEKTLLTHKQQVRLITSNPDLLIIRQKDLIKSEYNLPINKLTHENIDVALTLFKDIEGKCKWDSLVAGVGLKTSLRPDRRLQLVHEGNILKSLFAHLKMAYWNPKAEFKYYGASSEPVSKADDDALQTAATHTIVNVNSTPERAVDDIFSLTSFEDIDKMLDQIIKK

Bse634I wt [2] = molecular target: T2, Bse634I wt (UniProt Q8RT53 1-293); assay: EMSA
T2 sequence: T1 sequence with A226R

Bse634I wt [3] = molecular target: T2, Bse634I wt; assay: EMSA; remark: listed apart in the source
Bse634I R226A [4] = molecular target: T1, Bse634I R226A; assay: crystal structure; remark: listed apart in the source
Bse634I R226A [5] = molecular target: T1, Bse634I R226A; assay: crystal structure; remark: listed apart in the source

B1: AT-2 (dsDNA)
DNA 1: TTCGACCGGTCGA
DNA 2: TTCGACCGGTCGA
- binding result (Bse634I R226A [1]): binds

B2: GC (dsDNA)
DNA 1: CGCACGATCGCCGGCGATGCACGC
DNA 2: GCGTGCATCGCCGGCGATCGTGCG
- binding result (Bse634I wt [2]): binds

B3: AT (dsDNA)
DNA 1: CGCACGATCACCGGTGATGCACGC
DNA 2: GCGTGCATCACCGGTGATCGTGCG
- binding result (Bse634I wt [2]): binds

B4: AU (dsDNA)
DNA 1: CGCACGATCACCGGUGATGCACGC
DNA 2: GCGTGCATCACCGGUGATCGTGCG
modifications: dU for T at position 15 of each strand
- binding result (Bse634I wt [3]): binds

B5: GC-1 (dsDNA)
DNA 1: TCGCGCCGGCGCG
DNA 2: TCGCGCCGGCGCG
- binding result (Bse634I R226A [4]): binds

B6: IC (dsDNA)
DNA 1: CGCACGATCGCCGGCGATGCACGC
DNA 2: GCGTGCATCGCCGGCGATCGTGCG
modifications: inosine for G at position 10 of each strand (written as G)
- binding result (Bse634I wt [3]): binds

B7: AT-1 (dsDNA)
DNA 1: TCGCACCGGTGCG
DNA 2: TCGCACCGGTGCG
- binding result (Bse634I R226A [5]): binds
